According to US20120149879A1 (published 2012):

Columns and labels:
[1] = molecular target: T1, EGFR-ECD (human, UniProt P00533 25-645); assay: SPR (Biacore T100), antibody captured by anti-human IgG on C1 chip, EGFR-ECD injected, 25 C
T1 construct: extracellular domain; Analyte in the Biacore assays; also called human epidermal growth factor receptor; HER-1
Description: Capturing anti-human IgG antibody was immobilized on the surface of a C1 biosensorchip using amine-coupling chemistry. […] A reference control flow cell was treated in the same way but with vehicle buffers only instead of the capturing antibody. Surfaces were blocked with an injection of 1 M ethanolamine/HCl pH 8.5. The bispecific antibodies were diluted in HBS-P and injected at a flow rate of 5 μl/min. The contact time (association phase) was 1 min for the antibodies at a concentration between 1 and 5 nM. EGFR-ECD was injected at increasing concentrations of 1.2, 3.7, 11.1, 33.3, 100 and 300 nM, IGF-1R at concentrations of 0.37, 1.11, 3.33, 10, 30 and 90 nM. The contact time (association phase) was 3 min, the dissociation time (washing with running buffer) 5 min for both molecules at a flowrate of 30 μl/min. All interactions were performed at 25° C. (standard temperature). The regeneration solutions of 0.85% phosphoric acid and 5 mM sodium hydroxide were injected each for 60 s at 5 μl/min flow to remove any non-covalently bound protein after each binding cycle. Signals were detected at a rate of one signal per second. Samples were injected at increasing concentrations.

[2] = molecular target: T2, IGF-1R (UniProt P08069 31-932, limits assumed); assay: SPR (Biacore T100), antibody captured by anti-human IgG on C1 chip, IGF-1R injected, 25 C
T2 construct: Analyte in the Biacore assays; also called IGF-IR; insulin-like growth factor I receptor

[3] = molecular target: T1, EGFR-ECD; assay: SPR (Biacore T100), antibody captured by anti-human IgG on CM5 chip, EGFR-ECD injected, 25 C
Description: A reference control flow cell was treated in the same way but with vehicle buffers only instead of the capturing antibody. Surfaces were blocked with an injection of 1 M ethanolamine/HCl pH 8.5. The bispecific antibodies were diluted in HBS-P and injected at a flow rate of 5 μl/min. […] The contact time (association phase) was 3 min, the dissociation time (washing with running buffer) 5 min for both molecules at a flowrate of 30 μl/min. All interactions were performed at 25° C. (standard temperature). […] Signals were detected at a rate of one signal per second. Samples were injected at increasing concentrations.

| Kd [1] [nM] | Kd [2] [nM] | Kd [3] [nM] | Binder |
| --- | --- | --- | --- |
| 0.5 | 11 |  | scFab-XGFR2_2720 (bispecific antibody) chain 1: not shown chain 2: DIQMTQSPSSLSASVGDRVTITCRASQGINNYLNWYQQKPGKAPKRLIYNTNNLQTGVPSRFSGSGSGTEFTLTISSLQPEDFATYYCLQHNSFPTFGQGTKLEIKRTVAAPSVFIFPPSDEQLKSGTASVVCLLNNFYPREAKVQWKVDNALQSGNSQESVTEQDSKDSTYSLSSTLTLSKADYEKHKVYACEVTHQGLSSPVTKSFNRGEC |
| 0.5 |  | 3 | humanized rat anti-EGFR antibody ICR62 with VH of SEQ ID NO: 8, and VL of SEQ ID NO: 10 (antibody, V domains shown, Parent monospecific 'wildtype' IgG; also called <EGFR>ICR62; <EGFR> ICR62) VH: QVQLVQSGAEVKKPGSSVKVSCKASGFTFTDYKIHWVRQAPGQGLEWMGYFNPNSGYSTYAQKFQGRVTITADKSTSTAYMELSSLRSEDTAVYYCARLSPGGYYVMDAWGQGTTVTVSS VL: DIQMTQSPSSLSASVGDRVTITCRASQGINNYLNWYQQKPGKAPKRLIYNTNNLQTGVPSRFSGSGSGTEFTLTISSLQPEDFATYYCLQHNSFPTFGQGTKLEIKR |
